Laboratory results published in patent US20230212272A1 (LONGBIO PHARMA SUZHOU, published 2023).
Changes are numbered by the printed parent chain.

B1: Eculizumab (antibody, human IgG2, kappa, V domains shown)
VH: QVQLVQSGAEVKKPGASVKVSCKASGYIFSNYWIQWVRQAPGQGLEWMGEILPGSGSTEYTENFKDRVTMTRDTSTSTVYMELSSLRSEDTAVYYCARYFFGSSPNWYFDVWGQGTLVTVSS
VL: DIQMTQSPSSLSASVGDRVTITCGASENIYGALNWYQQKPGKAPKLLIYGATNLADGVPSRFSGSGSGTDFTLTISSLQPEDFATYYCQNVLNTPLTFGQGTKVEIKR
B2: humanized antibody 16H46L39am (antibody, human IgG1, kappa, L234A L235A, V domains shown)
VH: QVQLVQSGAEVKKPGASVKVSCKASGYTFTNYGMNWVRQAPGQGLEWMGWINTYTGEPTYADDFKGRFTFTLDTSTSTAYLELSSLRSEDTAVYYCARTKVPLYFAYAMDYWGQGTLVTVSS
VL: DIQLTQSPSSLSASVGDRVTITCKASQSVDYEGDSYLNWYQQKPGKAPKLLIYAASNLESGIPSRFSGSGSGTDFTLTISSLQPEDFATYYCQQSNEDPSTFGGGTKVEIKR
B3: humanized antibody 16H1L2m (antibody, human IgG1, kappa, L234A L235A, V domains shown)
VH: B2 VH with A9S, V11L, T69V, T71S, T76V, T78M, E82Q, L83I, R87K, S88A
VL: DIVLTQSPSSLAVSLGERATINCKASQSVDYEGDSYLNWYQQKPGQPPKLLIYAASNLESGIPDRFSGSGSGTDFTLTISSLQAEDVAVYYCQQSNEDPSTFGGGTKVEIKR
B4: chimeric antibody CHI-16 (antibody, human IgG1, kappa, L234A L235A, V domains shown)
VH: QIQLVQSGPELKKPGETVKISCKASGYTFTNYGMNWVKQAPGKGLKWMGWINTYTGEPTYADDFKGRFAFSLETSASTAYLQINNLKNEDTATYFCTRTKVPLYFAYAMDYWGQGTSVTVSS
VL: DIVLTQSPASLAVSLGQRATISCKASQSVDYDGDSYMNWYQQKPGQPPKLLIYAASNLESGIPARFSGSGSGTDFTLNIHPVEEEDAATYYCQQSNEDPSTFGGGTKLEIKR

Columns and labels:
[1] = target: T1, C5 of normal human serum (NHS) (human, UniProt P01031 19-1676); experiment: cell-based or functional assay
[2] = target: T1, C5 of normal human serum (NHS); experiment: cell-based or functional assay; remark: listed apart in the source
human C5 antigen [3] = target: T2, human C5 antigen (human, UniProt P01031 19-673; P01031 678-1676); experiment: ELISA, antibody coated, human C5 titrated; EC50 is the antigen concentration
T2 construct: The later ELISAs detect it with an anti-histidine antibody, so it carries a His tag; also called complement component 5
Procedure: The wells were blocked with 2.5% skimmed milk dissolved in a phosphate-buffered saline (PBS) for 1 hour, and washed with a PBST solution (a PBS solution containing 20% Tween). Then, 100 μL of the human C5 gradient diluent (the C5 was diluted to 1 ug/ml, followed by 3 X dilution to give 7 gradients, with 100 μL/well) was added into each well, and incubated at room temperature for 1 hr.
EC₅₀ can be used to evaluate the concentration of antigen at the 50% binding capacity of various antibodies to the antigen.

human C5 antigen [4] = target: T2, human C5 antigen; experiment: BLI (ForteBio Octet)

| Binder | IC50 (ng/ml), inhibition of classical pathway hemolysis of sheep red blood cells by 1% NHS [1] [ng/mL] | IC50 (ng/ml), classical pathway (CP) hemolysis inhibition [2] [ng/mL] | IC90 (ng/ml), classical pathway (CP) hemolysis inhibition [2] [ng/mL] | EC50 (human C5 antigen [3]) [µg/mL] | Kd (human C5 antigen [4]) [nM] | koff (human C5 antigen [4]) [s⁻¹] | kon (human C5 antigen [4]) [M⁻¹ s⁻¹] |
| --- | --- | --- | --- | --- | --- | --- | --- |
| B1 | 401 | 559 | 1340 | – | – | – | – |
| B2 | – | 330 | 507 | 0.169 | 0.369 | 7.86e-05 | 213000 |
| B3 | – | 347 | 511 | 0.117 | 0.359 | 7.81e-05 | 217000 |
| B4 | 204 | 302 | 500 | – | – | – | – |
